Experimental data published in US20140348819A1, “Methods of Treating Cancer” (Dana-Farber Cancer Institute, Inc., priority 2011, published 2014).

Tested on: six V600E BRAF melanoma cell lines
Assay: Screening of recombinant RTK ligands for ability to confer resistance to BRAFi (PLX4720) or MEKi (PD184352) (Table 4)
Type: cell-based, human
Parameters: ability of recombinant RTK ligand to confer resistance / ability of recombinant RTK ligand to confer resistance (screening value): scale not given here
Procedure, shortened: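 Six V600E BRAF melanoma lines treated with PLX4720 or PD184352 after addition of 22 recombinant RTK ligands, scored for drug resistance. Activation of selected RTKs confirmed by western blotting and high-throughput tyrosine kinase phosphorylation profiling.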

B1: Ephrin-A4 (protein, UniProt P52798 26-170, looked up)
Ephrin-A4: LRHVVYWNSSNPRLLRGDAVVELGLNDYLDIVCPHYEGPGPPEGPETFALYMVDWPGYESCQAEGPRAYKRWVCSLPFGHVQFSEKIQRFTPFSLGFEFLPGETYYYISVPTPESSGQCLRLQVSVCCKERKSESAHPVGSPGES
- ability of recombinant RTK ligand to confer resistance (A2058, PD184352 - 1 uM, ligand 1.6 ng/ml): 1.00
- ability of recombinant RTK ligand to confer resistance (A2058, PD184352 - 1 uM, ligand 6.25 ng/ml): 1.02
- ability of recombinant RTK ligand to confer resistance (A2058, PD184352 - 1 uM, ligand 25 ng/ml): 0.99
- ability of recombinant RTK ligand to confer resistance (A2058, PD184352 - 1 uM, ligand 100 ng/ml): 1.04
- ability of recombinant RTK ligand to confer resistance (A2058, PD184352 - 1 uM, ligand 400 ng/ml): 1.07
- ability of recombinant RTK ligand to confer resistance (A2058, PLX4720 - 2 uM, ligand 1.6 ng/ml): 0.97
- ability of recombinant RTK ligand to confer resistance (A2058, PLX4720 - 2 uM, ligand 6.25 ng/ml): 0.99
- ability of recombinant RTK ligand to confer resistance (A2058, PLX4720 - 2 uM, ligand 25 ng/ml): 0.96
- ability of recombinant RTK ligand to confer resistance (A2058, PLX4720 - 2 uM, ligand 100 ng/ml): 0.99
- ability of recombinant RTK ligand to confer resistance (A2058, PLX4720 - 2 uM, ligand 400 ng/ml): 0.98
- ability of recombinant RTK ligand to confer resistance (C32, PD184352 - 1 uM, ligand 1.6 ng/ml): 1.02
- ability of recombinant RTK ligand to confer resistance (C32, PD184352 - 1 uM, ligand 6.25 ng/ml): 1.02
- ability of recombinant RTK ligand to confer resistance (C32, PD184352 - 1 uM, ligand 25 ng/ml): 0.98
- ability of recombinant RTK ligand to confer resistance (C32, PD184352 - 1 uM, ligand 100 ng/ml): 1.04
- ability of recombinant RTK ligand to confer resistance (C32, PD184352 - 1 uM, ligand 400 ng/ml): 0.90
- ability of recombinant RTK ligand to confer resistance (C32, PLX4720 - 2 uM, ligand 1.6 ng/ml): 1.04
- ability of recombinant RTK ligand to confer resistance (C32, PLX4720 - 2 uM, ligand 6.25 ng/ml): 1.01
- ability of recombinant RTK ligand to confer resistance (C32, PLX4720 - 2 uM, ligand 25 ng/ml): 1.04
- ability of recombinant RTK ligand to confer resistance (C32, PLX4720 - 2 uM, ligand 100 ng/ml): 1.10
- ability of recombinant RTK ligand to confer resistance (C32, PLX4720 - 2 uM, ligand 400 ng/ml): 1.03
- ability of recombinant RTK ligand to confer resistance (Colo 829, PD184352 - 1 uM, ligand 1.6 ng/ml): 1.08
- ability of recombinant RTK ligand to confer resistance (Colo 829, PD184352 - 1 uM, ligand 6.25 ng/ml): 1.13
- ability of recombinant RTK ligand to confer resistance (Colo 829, PD184352 - 1 uM, ligand 25 ng/ml): 1.01
- ability of recombinant RTK ligand to confer resistance (Colo 829, PD184352 - 1 uM, ligand 100 ng/ml): 0.98
- ability of recombinant RTK ligand to confer resistance (Colo 829, PD184352 - 1 uM, ligand 400 ng/ml): 0.96
- ability of recombinant RTK ligand to confer resistance (Colo 829, PLX4720 - 2 uM, ligand 1.6 ng/ml): 1.06
- ability of recombinant RTK ligand to confer resistance (Colo 829, PLX4720 - 2 uM, ligand 6.25 ng/ml): 1.19
- ability of recombinant RTK ligand to confer resistance (Colo 829, PLX4720 - 2 uM, ligand 25 ng/ml): 1.00
- ability of recombinant RTK ligand to confer resistance (Colo 829, PLX4720 - 2 uM, ligand 100 ng/ml): 0.99
- ability of recombinant RTK ligand to confer resistance (Colo 829, PLX4720 - 2 uM, ligand 400 ng/ml): 0.90
- ability of recombinant RTK ligand to confer resistance (G-361, PD184352 - 1 uM, ligand 1.6 ng/ml): 1.11
- ability of recombinant RTK ligand to confer resistance (G-361, PD184352 - 1 uM, ligand 6.25 ng/ml): 1.09
- ability of recombinant RTK ligand to confer resistance (G-361, PD184352 - 1 uM, ligand 25 ng/ml): 1.04
- ability of recombinant RTK ligand to confer resistance (G-361, PD184352 - 1 uM, ligand 100 ng/ml): 0.98
- ability of recombinant RTK ligand to confer resistance (G-361, PD184352 - 1 uM, ligand 400 ng/ml): 0.86
- ability of recombinant RTK ligand to confer resistance (G-361, PLX4720 - 2 uM, ligand 1.6 ng/ml): 1.08
- ability of recombinant RTK ligand to confer resistance (G-361, PLX4720 - 2 uM, ligand 6.25 ng/ml): 1.05
- ability of recombinant RTK ligand to confer resistance (G-361, PLX4720 - 2 uM, ligand 25 ng/ml): 0.95
- ability of recombinant RTK ligand to confer resistance (G-361, PLX4720 - 2 uM, ligand 100 ng/ml): 1.02
- ability of recombinant RTK ligand to confer resistance (G-361, PLX4720 - 2 uM, ligand 400 ng/ml): 0.88
- ability of recombinant RTK ligand to confer resistance (SK-MEL-5, PD184352 - 1 uM, ligand 1.6 ng/ml): 0.96
- ability of recombinant RTK ligand to confer resistance (SK-MEL-5, PD184352 - 1 uM, ligand 6.25 ng/ml): 0.93
- ability of recombinant RTK ligand to confer resistance (SK-MEL-5, PD184352 - 1 uM, ligand 25 ng/ml): 0.93
- ability of recombinant RTK ligand to confer resistance (SK-MEL-5, PD184352 - 1 uM, ligand 100 ng/ml): 0.98
- ability of recombinant RTK ligand to confer resistance (SK-MEL-5, PD184352 - 1 uM, ligand 400 ng/ml): 0.99
- ability of recombinant RTK ligand to confer resistance (SK-MEL-5, PLX4720 - 2 uM, ligand 1.6 ng/ml): 0.91
- ability of recombinant RTK ligand to confer resistance (SK-MEL-5, PLX4720 - 2 uM, ligand 6.25 ng/ml): 1.07
- ability of recombinant RTK ligand to confer resistance (SK-MEL-5, PLX4720 - 2 uM, ligand 25 ng/ml): 0.99
- ability of recombinant RTK ligand to confer resistance (SK-MEL-5, PLX4720 - 2 uM, ligand 100 ng/ml): 0.99
- ability of recombinant RTK ligand to confer resistance (SK-MEL-5, PLX4720 - 2 uM, ligand 400 ng/ml): 0.93
- ability of recombinant RTK ligand to confer resistance (SK-MEL-28, PD184352 - 1 uM, ligand 1.6 ng/ml): 0.98
- ability of recombinant RTK ligand to confer resistance (SK-MEL-28, PD184352 - 1 uM, ligand 6.25 ng/ml): 0.88
- ability of recombinant RTK ligand to confer resistance (SK-MEL-28, PD184352 - 1 uM, ligand 25 ng/ml): 0.99
- ability of recombinant RTK ligand to confer resistance (SK-MEL-28, PD184352 - 1 uM, ligand 100 ng/ml): 1.07
- ability of recombinant RTK ligand to confer resistance (SK-MEL-28, PD184352 - 1 uM, ligand 400 ng/ml): 0.90
- ability of recombinant RTK ligand to confer resistance (SK-MEL-28, PLX4720 - 2 uM, ligand 1.6 ng/ml): 1.10
- ability of recombinant RTK ligand to confer resistance (SK-MEL-28, PLX4720 - 2 uM, ligand 6.25 ng/ml): 0.84
- ability of recombinant RTK ligand to confer resistance (SK-MEL-28, PLX4720 - 2 uM, ligand 25 ng/ml): 1.05
- ability of recombinant RTK ligand to confer resistance (SK-MEL-28, PLX4720 - 2 uM, ligand 100 ng/ml): 1.10
- ability of recombinant RTK ligand to confer resistance (SK-MEL-28, PLX4720 - 2 uM, ligand 400 ng/ml): 1.00
